{
  "source": "patent US20250312453A1",
  "binders": {"B1": {"name": "nanobody NM5 (VHH)", "VHH": "DVQLQESGGGLVQAGGSLRLSCVGAGVSFSPYGIGWWRQAQGNQREWVASIYRSGSTNYEDFAKDRFTISRDNTKNTAYLQMNSLKPEDTAVYYCQILGTSYRGQGTQVTVSS"}},
  "target": "MSLN (UniProt Q13421)",
  "sequence (Q13421 other isoform, or with tags, fused parts or gaps limits assumed)": "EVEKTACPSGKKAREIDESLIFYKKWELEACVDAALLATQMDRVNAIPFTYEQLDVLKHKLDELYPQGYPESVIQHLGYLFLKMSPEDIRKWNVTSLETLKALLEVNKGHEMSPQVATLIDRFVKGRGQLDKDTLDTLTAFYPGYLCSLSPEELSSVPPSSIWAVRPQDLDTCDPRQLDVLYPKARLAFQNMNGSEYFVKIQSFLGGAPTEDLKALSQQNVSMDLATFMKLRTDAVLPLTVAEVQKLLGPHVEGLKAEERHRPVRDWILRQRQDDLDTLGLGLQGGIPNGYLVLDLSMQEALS",
  "experiment": "BLI",
  "data": [
    {"binder": "B1", "values": [
      {"measurement": "Kd", "result": 11.4, "unit": "nM"}
    ]}
  ]
}
